Assay [1] has as its target T1, human 2Ig-B7H3 (B7H3-2Ig-His) (human, UniProt Q5ZPR3 29-466).
T1 construct: Recombinant His-tagged protein immobilised on a CM5 chip; also called 21g-B7H3; B7H3-21g-His; not shown: His tag
T1 sequence: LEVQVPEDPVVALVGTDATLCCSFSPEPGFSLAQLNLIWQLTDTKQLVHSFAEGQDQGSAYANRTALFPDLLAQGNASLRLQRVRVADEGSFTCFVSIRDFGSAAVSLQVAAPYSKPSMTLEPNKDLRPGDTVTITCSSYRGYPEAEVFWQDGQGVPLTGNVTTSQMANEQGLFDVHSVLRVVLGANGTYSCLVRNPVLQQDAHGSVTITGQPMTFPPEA
Nature of the assay: SPR, Biacore T200, 2Ig-B7H3-His on CM5 chip, 1:1 fit; * beyond fitting limits. Here is the method: (§1) Both human B7H3 41g and 21g proteins were dissolved in PBS (Phosphate-Buffered Saline) to make 0.1 mg/ml stock solution and stored in −80° C. B7-H3 proteins were immobilized onto the CM5 sensor chip using Amine Coupling Kit. Both proteins were diluted to 10 ug/ml with 10 mM Sodium acetate, pH 5.0. […] A blank immobilized surface was used as a control
(§2) Binding Assays: [0143] 1. Antibodies were diluted in HBS-EP buffer (10 mM HEPES, 150 mM NaCl, 3 mM EDTA, 0.05% Surfactant P20, pH 7.4) at varying concentrations (25-50-100-200-400 nM) prior to analysis. […] 2. Samples (60 ul) were injected over the sensor surface at a flow rate of 30 ul/min over 2 min. [0145] 3. Following completion of the association phase, dissociation was monitored in HBS-EP buffer for 10 min at the same flow rate. […] 4. At the end of each cycle, the surface was regenerated using 10 mM NaOH at a flow rate of 50 ul/min over 2×15 sec.
(In general: In SPR one partner is held on a chip, and binding of the other changes the refractive index at the surface.)

The target of assay [2] is T1, human 2Ig-B7H3 (B7H3-2Ig-His). The experiment in a line: SPR, Biacore T200, 2Ig-B7H3-His on CM5 chip, 1:1 fit; unconjugated 8H9, lot P76501A, Table 5 run.
Assay [3] addresses T2, human 4Ig-B7H3 (B7H3-4Ig-His) (human, UniProt Q5ZPR3 29-466).
T2 construct: Recombinant His-tagged protein immobilised on a CM5 chip; also called 41g-B7H3; human 4Ig-B7-H3 (dominant isoform); not shown: His tag
T2 sequence: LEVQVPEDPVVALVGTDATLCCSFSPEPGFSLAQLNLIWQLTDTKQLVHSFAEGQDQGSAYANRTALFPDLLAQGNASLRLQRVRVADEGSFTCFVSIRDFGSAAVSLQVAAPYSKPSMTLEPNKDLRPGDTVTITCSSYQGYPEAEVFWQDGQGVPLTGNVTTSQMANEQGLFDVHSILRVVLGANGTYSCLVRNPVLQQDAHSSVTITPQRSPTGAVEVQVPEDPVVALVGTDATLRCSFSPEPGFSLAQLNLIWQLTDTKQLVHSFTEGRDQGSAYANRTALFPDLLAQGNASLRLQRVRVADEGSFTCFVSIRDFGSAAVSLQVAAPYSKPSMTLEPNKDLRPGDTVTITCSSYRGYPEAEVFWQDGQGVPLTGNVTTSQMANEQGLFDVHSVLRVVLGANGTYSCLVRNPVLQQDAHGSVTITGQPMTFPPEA
The experiment in a line: SPR, Biacore T200, 4Ig-B7H3-His on CM5 chip, 1:1 fit. Here is the method: as §1
(§3) The data were analyzed by the 1:1 fitting model and default parameter setting for the rate constants using the Biacore T200 Evaluation Software, and the apparent association on rate constant (kon, ka), dissociation off rate constant (koff, kd) and equilibrium dissociation constant (KD=kd/ka) were calculated.

The target in assay [4] is T1, human 2Ig-B7H3 (B7H3-2Ig-His). The experiment in a line: SPR, Biacore T200, 2Ig-B7H3-His on CM5 chip, 1:1 fit; * beyond fitting limits. How it is done: as §1, §2, §3
This is another data set of the same source.

Assay [5] deals with T3, recombinant monkey B7-H3 (monkey).
T3 chain: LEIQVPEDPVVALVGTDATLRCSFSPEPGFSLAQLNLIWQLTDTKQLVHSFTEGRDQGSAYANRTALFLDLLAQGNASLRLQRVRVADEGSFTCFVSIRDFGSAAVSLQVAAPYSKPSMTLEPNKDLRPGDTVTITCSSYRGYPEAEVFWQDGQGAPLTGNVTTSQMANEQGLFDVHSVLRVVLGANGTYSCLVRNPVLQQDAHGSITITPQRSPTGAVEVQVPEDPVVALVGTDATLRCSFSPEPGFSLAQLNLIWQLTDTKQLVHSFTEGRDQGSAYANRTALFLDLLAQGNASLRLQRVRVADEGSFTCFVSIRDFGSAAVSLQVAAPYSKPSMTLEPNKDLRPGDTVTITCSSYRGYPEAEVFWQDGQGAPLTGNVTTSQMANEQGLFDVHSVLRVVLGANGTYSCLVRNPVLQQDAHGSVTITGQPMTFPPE
Nature of the assay: SPR, triplicate.

The target of assay [6] is T1, human 2Ig-B7H3 (B7H3-2Ig-His). Nature of the assay: SPR, Biacore T200, 2Ig-B7H3-His on CM5 chip, 1:1 fit; * beyond fitting limits; unconjugated 8H9, lot S219, Table 5 run.
The target is the same in assay [7]. Nature of the assay: SPR, Biacore T200, 2Ig-B7H3-His on CM5 chip, 1:1 fit. How it is done:
as §1, §2, §3

Assay [8] has the same target. Described as above. Here is the method: as §1, §3
The source holds these as a separate data set.

Assay [9] has the same target. Nature of the assay: SPR, Biacore T200, 2Ig-B7H3-His on CM5 chip, 1:1 fit; * beyond fitting limits; unconjugated 8H9, lot S219, Table 3 run.
For assay [10], the target named is recombinant human B7-H3 (Example 3) (human) (UniProt Q5ZPR3). Nature of the assay: SPR, triplicate.
Assay [11] concerns the target T1, human 2Ig-B7H3 (B7H3-2Ig-His). Nature of the assay: SPR, Biacore T200, 2Ig-B7H3-His on CM5 chip, 1:1 fit; unconjugated 8H9, lot S219, Table 3 run.

Values joined by “and” are separate entries in the source; they are usually repeats but may differ in a detail not shown here. Equal entries are not always repeated. Where two headings read alike, the source gives them in different places.

B1: 8H9 antibody comprising a light chain according to SEQ ID No.: 2 and heavy chain according to SEQ ID No.: 1 (antibody, mouse IgG1, kappa, V domains shown)
VH: QVQLQQSGAELVKPGASVKLSCKASGYTFTNYDINWVRQRPEQGLEWIGWIFPGDGSTQYNEKFKGKATLTTDTSSSTAYMQLSRLTSEDSAVYFCARQTTATWFAYWGQGTLVTVSA
VL: DIVMTQSPATLSVTPGDRVSLSCRASQSISDYLHWYQQKSHESPRLLIKYASQSISGIPSRFSGSGSGSDFTLSINSVEPEDVGVYYCQNGHSFPLTFGAGTKLELKR
notes: Unconjugated mouse IgG1 mAb; also called m8H9; murine 8H9
One may read the koff as the first-order rate constant of dissociation. As a reminder, the Kd is the constant that tells how readily two partners part at equilibrium. A word on the kon: it is the second-order rate constant of association. Regarding B1, the koff in assay [1] is 1.1e-07 s⁻¹; in [3], 9.11e-05 s⁻¹ and 8.73e-05 s⁻¹; in assay [4] it was 2.38e-07 s⁻¹ and 5.68e-07 s⁻¹; in [5], 1e-05 s⁻¹; in assay [6], below 1e-05 s⁻¹; in assay [9], below 1e-05 s⁻¹. Besides, the koff in assay [10] came out at 1e-05 s⁻¹. Moreover, the Kd is below 0.186 nM in assay [2]; 3.18 nM and 3.13 nM in [3]; 0.0016 nM in [5]; 0.0123 nM in [7]; 0.0011 nM in assay [10]; below 0.244 nM in [11]. Further, the kon in [3] is 28600 M⁻¹ s⁻¹ and 27900 M⁻¹ s⁻¹; in [5], 6.5e+06 M⁻¹ s⁻¹; in assay [7], 43400 M⁻¹ s⁻¹ and 46200 M⁻¹ s⁻¹ and 40900 M⁻¹ s⁻¹; in [8] it was 53800 M⁻¹ s⁻¹ and 47100 M⁻¹ s⁻¹; in [10], 8.9e+06 M⁻¹ s⁻¹. Further, the “t ½” value in assay [3] was 0.0881 days and 0.0919 days; in assay [8], 72.9 days and 169 days.

The values are drawn from US20230293738A1 (Y MABS THERAPEUTICS, published 2023).
